The record followed here is publication PMC7893823, “Structural basis of nucleosomal histone H4 lysine 20 methylation by SET8 methyltransferase” (Life Science Alliance, 2021).

The experiment has as its target histone H4 (human, UniProt P62805 1-103). Description: cryo-EM structure; NCP or NCP^CENP-A (0.52 μM) mixed with SET8 (1.0 or 0.94 μM) at 25°C with 0.10 mM S-adenosyl-L-homocysteine, 50 mM NaCl, 50 mM KCl; complex purified by GraFix (sucrose gradient with paraformaldehyde cross-linking). To be noted: both partners purified.

B1: human SET8 (KMT5A Isoform 2) (enzyme)
chain: MARGRKMSKPRAVEAAAAAAAVAATAPGPEMVERRGPGRPRTDGENVFTGQSKIYSYMSPNKCSGMRFPLQEENSVTHHEVKCQGKPLAGIYRKREEKRNAGNAVRSAMKSEEQKIKDARKGPLVPFPNQKSEAAEPPKTPPSSCDSTNAAIAKQALKKPIKGKQAPRKKAQGKTQQNRKLTDFYPVRRSSRKSKAELQSEERKRIDELIESGKEEGMKIDLIDGKGRGVIATKQFSRGDFVVEYHGDLIEITDAKKREALYAQDPSTGCYMYYFQYLSKTYCVDATRETNRLGRLINHSKCGNCQTKLHDIDGVPHLILIASRDIAAGEELLYDYGDRSKASIEAHPWLKH
notes: SET8 (KMT5A), human, isoform 2, UniProt Q9NQR1-2; residue numbers (Arg188, Arg192) count on isoform 2; His6 tag removed with PreScission protease (modified pET15b vector); also called PR-SET7; SETD8; source: E. coli BL21(DE3), purified (Ni-NTA, Mono S, Superdex 200)
As to B1, the binding result is given as “binds”.
